A word on the Km: it is the concentration of substrate that gives half-maximal velocity. Broadly, the Vmax is the top rate of the reaction or transport when substrate is in excess. For orientation: kcat means the number of substrate molecules converted per active site and unit of time at saturation.

Here are results for one protein from publication PMC4083873, “Expression and characterization of a β-fructofuranosidase from the parasitic protist Trichomonas vaginalis” (BMC Biochemistry, 2014).

Substrate in series [1]: OC[C@H]1O[C@@](CO)(O[C@H]2O[C@H](CO)[C@@H](O)[C@H](O)[C@H]2O)[C@@H](O)[C@@H]1O
The experiment in a line: coupled hexokinase / glucose-6-phosphate dehydrogenase assay of released glucose; Michaelis-Menten fit. The series is classed as biochemical, Trichomonas vaginalis. Conditions: 20 mM sodium acetate, pH 5.0, 30 °C, ~27 nM enzyme. The source says:
coupled hexokinase / glucose-6-phosphate dehydrogenase assay of released glucose; Michaelis-Menten fit on T. vaginalis β-fructofuranosidase

Substrate in series [2]: OC[C@H]1O[C@H](OC[C@H]2O[C@H](O[C@]3(CO)O[C@H](CO)[C@@H](O)[C@@H]3O)[C@H](O)[C@@H](O)[C@@H]2O)[C@H](O)[C@@H](O)[C@H]1O
Nature of the series: coupled hexokinase / glucose-6-phosphate dehydrogenase / phosphoglucose isomerase assay of released fructose; Michaelis-Menten fit. The conditions noted are these: 20 mM sodium acetate, pH 5.0, 30 °C, ~27 nM enzyme. The series is classed as biochemical, Trichomonas vaginalis. The source says: coupled hexokinase / glucose-6-phosphate dehydrogenase / phosphoglucose isomerase assay of released fructose; Michaelis-Menten fit on T. vaginalis β-fructofuranosidase

B1: T. vaginalis β-fructofuranosidase (Trichomonas vaginalis G3) (protein)
chain: MNFSSRLKFHFEPLKGWMNDPNGLIQFKGEYHAFFQHYPFDTKWGPMHWGHATSKDLIHWEHKPIALYPDQEYENNGGCFSGSAIEFNDKLHIFYTGVGKSNGQSQCHAVMQDENRFIKDPKNPIIKSPPIEYGINDFRDPKVVKIENTFYMVVGTGKDGIGRVLLYKSSNLENWTFLNLLVEGKEYGQCCECPDLIQIDNQFFLMFSQMTGQGIGTLFFHLKYENGTFTVDKKLNQPIIGPDFYAPQTFHDDKGRRIIIGWLYNWKRVPPKEVDYAGAFTIPCELKYKEGKIVVNPIDEISHELKSESKFVEIQENKLIINGKPSVIHEGKIENIKILEDVKTIEVWINNGEFYYSTWLF
notes: E. coli BL21(DE3); IMAC; calculated 44 kDa
As for B1, in series [1], the Km is 20.6 ± 2.2 mM, the Vmax was 1580 µmol/min/mg and the kcat was 1160 ± 36 s⁻¹. For the same protein, in series [2], the Michaelis-Menten constant (Km) amounted to 5.5 ± 0.9 mM, the Vmax is 368 µmol/min/mg and the catalytic constant (kcat) worked out at 270 ± 12 s⁻¹.
